Values quoted from earlier work in publication PMC12283743.

Tested on: H. pylori surface recombinant antigen (not named) (Helicobacter pylori)
Settings: target of the Kd cut off in the material (recombinant antigen or cells); Sensor only: bacteria incubated 40 min on the aptamer electrode, detection in PBS pH 7.0 (0.1 M for CV), room temperature; conditions of the cited Kd not given

In the case of “AGTGTGCTCTTCTCAGGTCTCGGCGCGGTTGTGGGTACCTAGGGTTGTTGTTGCTTCTCAGCAGTGTCTCAGCATACGCA [H. pylori aptamer]”, the Kd is listed as 26 nM.
